# Biological target: T1, EGFR extracellular domain (ECD), wild type (human, UniProt P00533 25-645)
# T1 construct: Epidermal growth factor receptor, human, extracellular domain; The Biacore legend and methods say only 'recombinant human EGFR' / 'EGFR protein'; also called EGFR ECD; EGFR ectodomain
# Assay: ITC; MicroCal VP-ITC; nineteen 3 μL aliquots of 400 μM rLZ-8 injected into 20 μM EGFR ectodomain; single site binding model
# Conditions: both partners purified
binder,measurement,value
"recombinant Lingzhi-8 (rLZ-8), wild type (natural protein, Ganoderma lucidum, UniProt P14945 1-111, looked up, Lingzhi-8 (LZ-8) from Ganoderma lucidum, codon-optimised synthetic gene; Fluorescently labelled (red/green) in the cell experiments; also called rLZ-8^wt; source: Pichia pastoris X33 (pGAPZα A vector), culture supernatant, purified) MSDTALIFRLAWDVKKLSFDYTPNWGRGNPNNFIDTVTFPKVLTDKAYTYRVAVSGRNLGVKPSYAVESDGSQKVNFLEYNSGYGIADTNTIQVFVVDPDTNNDFIIAQWN",stoichiometry N,2 rLZ-8 per EGFR ECD

# Source: publication PMC7072198, “An Epitope on EGFR Loading Catastrophic Internalization Serve as a Novel Oncotarget for Hepatocellular Carcinoma Therapy” (Cancers, 2020)
